The values that follow come from PMC3509445 (Biology Open, 2012).

The target in one test is GST-TLX ΔN (Δ1-187) (mouse, UniProt Q64104 188-385). The experiment in a line: pull-down.
In a further test the target is GST-TLX ΔC341-385 (mouse, UniProt Q64104 1-340). The experiment in a line: pull-down.
Sequence of GST-TLX ΔC341-385 (Q64104 1-340, stated change not applied): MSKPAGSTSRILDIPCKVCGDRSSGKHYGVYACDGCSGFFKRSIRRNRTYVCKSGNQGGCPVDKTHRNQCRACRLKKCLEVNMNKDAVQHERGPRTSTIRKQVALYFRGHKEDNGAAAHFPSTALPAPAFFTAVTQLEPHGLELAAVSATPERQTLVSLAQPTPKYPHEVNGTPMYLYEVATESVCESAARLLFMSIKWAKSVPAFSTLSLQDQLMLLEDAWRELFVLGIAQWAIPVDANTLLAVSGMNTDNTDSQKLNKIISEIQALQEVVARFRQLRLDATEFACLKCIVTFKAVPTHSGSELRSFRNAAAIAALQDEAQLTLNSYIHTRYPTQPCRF

Sequence of GST-TLX ΔN (Δ1-187) (Q64104 188-385, stated change not applied): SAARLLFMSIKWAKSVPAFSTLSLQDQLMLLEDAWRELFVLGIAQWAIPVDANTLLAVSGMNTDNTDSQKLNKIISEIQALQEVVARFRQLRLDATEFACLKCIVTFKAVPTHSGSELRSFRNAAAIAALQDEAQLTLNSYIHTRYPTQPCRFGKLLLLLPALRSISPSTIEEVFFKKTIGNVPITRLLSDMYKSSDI

B1: ThioHis-VHL30Δ95-123 (natural protein, UniProt P40337-1 1-213, looked up)
chain: MPRRAENWDEAEVGAEEAGVEEYGPEEDGGEESGAEESGPEESGPEELGAEEEMEAGRPRPVLRSVNSREPSQVIFCNRSPRVVLPVWLNFDGETHDGLLVNQTELFVPSLNVDGQPIFANITLPVYTLKERCLQVVRSLVKPENYRRLDIVRSLYEDLEDHPNVQKDLERLTQERIAHQRMGD
With B1, the binding result with GST-TLX ΔN (Δ1-187) and in the test with GST-TLX ΔC341-385 was “binds” each time.
